Source: the Human Domainome abundance scans (Beltran et al. 2025)

B1: Retinoic acid receptor beta, residues 85 to 161; numbered along this chain, P10826 (parent)
chain: YKPCFVCQDKSSGYHYGVSACEGCKGFFRRSIQKNMIYTCHRDKNCVINKVTRNRCQYCRLQKCFEVGMSKESVRND

Variants of: B1
Assay: abundance fitness (aPCA) (normalised: wild type 0, dead -1); higher = more abundant; growth selection in yeast, the domain comes from the species named
Conditions: Homo sapiens

Abundance fitness of substitutions, site by site:
C56: F -0.946 | P -0.763 | I -1.05 | D -0.623 | A -1.16 | N -0.953 | E -0.703 | S -0.749 | G -0.773 | W -0.893 | H -0.581 | M -0.768 | K -0.978 | Y -0.567 | T -0.668 | R -0.928 | L -0.907
K44: E -0.015 | C -0.113 | G 0.035 | A -0.004 | W -0.208 | Y -0.321 | H -0.322 | D -0.059 | S 0.056 | Q 0.166 | M 0.032 | F -0.283 | I -0.009 | R 0 | P -0.599 | L -0.059 | T -0.043 | V -0.356
H41: L -0.077 | P -0.044 | T 0.129 | C -0.157 | Q 0.029 | D 0.051 | R -0.101 | Y -0.178 | M 0.081 | S -0.089 | K -0.103 | A -0.006 | I -0.064 | W 0.016 | E 0.131 | G -0.024 | N -0.121
Y58: C 0.046 | W 0.107 | E -0.214 | N -0.634 | A 0.107 | K -0.147 | Q -0.259 | I -0.898 | D -0.131 | P -1.13 | M -0.237 | L -0.545 | H -0.111 | R -0.325 | T -0.501 | V -0.679 | G -0.134
R53: K 0.071 | A 0.183 | Y 0.116 | E 0.102 | P 0.103 | L 0.148 | N 0.123 | T -0.002 | V 0.211 | W -0.026 | S 0.126 | H 0.016 | I 0.127 | D -0.018 | M 0.195 | G 0.003 | C 0.084 | Q 0.19 | F 0.057
D43: Y -0.103 | P -0.471 | S -0.034 | T 0.007 | R -0.024 | E 0.07 | Q -0.019 | L -0.066 | C -0.436 | G 0.012 | A 0.026 | V -0.103 | F -0.014 | I -0.038 | W -0.169 | N -0.072 | H -0.32 | M -0.076 | K -0.001
N54: F 0.089 | A 0.074 | S 0.136 | D 0.345 | H 0.067 | K 0.183 | G -0.007 | Y 0.112 | W -0.088 | E 0.217 | P -0.003 | T 0.185 | V 0.11 | R 0.036 | Q 0.183 | I 0.233 | C -0.267 | M 0.216
C59: F -0.872 | A -0.619 | G -0.758 | E -0.916
V47: S 0.024 | R -0.075 | D 0.168 | P 0.043 | I -0.082 | H -0.077 | L 0.03 | Y 0.107 | N -0.103 | F -0.11 | M 0.075 | W -0.048 | T 0.056 | A 0.058 | G -0.096 | Q 0.026 | C 0.003
C40: P -0.703 | I -0.667 | S -0.885 | T -0.539 | W -0.594 | A -0.901 | N -0.999 | M -0.568 | K -0.848 | F -0.775 | V -0.867 | G -0.817 | R -0.883 | D -0.825 | E -0.831 | L -0.555 | Y -0.642
K50: G 0.153 | T 0.125 | H 0.094 | V 0.208 | M 0.124 | I 0.244 | R 0.153 | D 0.225 | Q 0.158 | P 0.09 | A 0.145 | C -0.218 | N 0.021 | Y 0.126 | W 0.25 | S 0.231
C46: V -0.737 | I -0.711 | G -0.123 | Q -1.01 | E -0.474 | D -0.352 | S -0.562 | W -0.681 | P -0.94 | F -0.988 | T -0.53 | R -0.767 | L -0.668 | N -0.704 | H -0.475 | K -1
V51: E 0.171 | C -0.249 | D 0.255 | N -0.014 | F 0.13 | S 0.011 | Q 0.076 | M 0.166 | K -0.013 | L 0.238 | Y -0.003 | R -0.146 | W 0.282 | T 0.019 | P -0.218 | A -0.115 | I 0.073
N45: G -0.044 | K 0.053 | H -0.021 | M -0.035 | W -0.302 | F -0.251 | L 0.02 | Y -0.477 | E 0.049 | D -0.151 | Q 0.078 | R 0.059 | I 0.054 | V 0.039 | P -0.025 | C 0.02 | A 0.068 | S -0.057
R42: V 0.177 | I -0.114 | K 0.067 | W 0.15 | Y 0.033 | Q 0.121 | E 0.07 | P -1.01 | M 0.228 | A 0.203 | S 0.014 | T -0.016 | N 0.115 | H -0.412 | C 0.145 | D -0.047
T52: V -0.021 | I -0.053 | C -0.451 | D 0.046 | L 0.038 | F -0.188 | H -0.397 | K -0.015 | G -0.029 | M 0.02 | Q 0.027 | W -0.047 | S 0.032 | R -0.745 | E 0.123 | N 0.023
N49: R -0.43 | L -0.218 | A -0.284 | Y -0.37 | T 0.017 | H -0.372 | C -0.598 | S -0.116 | W -0.327 | E 0.003 | Q -0.328 | P -0.431 | G -0.255 | I -0.239 | F -0.368 | K -0.345 | V -0.546 | D 0.235
I48: L -0.096 | H -0.505 | G -0.605 | N -0.376 | P -0.417 | M 0.042 | W -0.647 | C -0.72 | F -0.078 | V -0.065 | A -0.531 | S -0.48 | T -0.161
T39: S -0.01 | W -0.097 | Q 0.076 | P -0.327 | R -0.01 | N 0.003 | M 0.061 | Y -0.009 | L 0.059
Q57: D 0.353 | K -0.245 | V -0.385 | Y 0.163 | C 0.078 | S 0.144 | N -0.021 | A 0.158 | W 0.104 | G 0.2 | P 0.141 | E 0.268 | T -0.251 | H 0.079
R55: I 0.155 | V 0.227 | M 0.25 | G 0.262 | L 0.183 | E 0.277 | A 0.18 | T 0.239 | F -0.343 | D 0.244 | S 0.265 | P 0.218 | Y 0.077 | K 0.198 | C 0.102 | H 0.205 | W 0.149 | N 0.26
